According to US20250101120A1 (BEIJING SOLOBIO GENETECHNOLOGY, published 2025):
Where two headings read alike, the source gives them in different places.

T1: hFc-hFasL (fusion protein of human Fc fragment and human FasL extracellular region) (human, UniProt P48023 134-281)
T1 sequence: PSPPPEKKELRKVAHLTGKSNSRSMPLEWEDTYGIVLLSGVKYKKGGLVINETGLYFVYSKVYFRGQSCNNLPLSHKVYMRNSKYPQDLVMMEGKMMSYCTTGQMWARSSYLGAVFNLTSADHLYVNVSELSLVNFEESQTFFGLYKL


Legend:
[1] = target: T1, hFc-hFasL (fusion protein of human Fc …); assay: cell-based or functional assay
[2] = target: T1, hFc-hFasL (fusion protein of human Fc …); assay: cell-based or functional assay; remark: listed apart in the source
[3] = target: T1, hFc-hFasL (fusion protein of human Fc …); assay: cell-based or functional assay; remark: listed apart in the source
[4] = target: T1, hFc-hFasL (fusion protein of human Fc …); assay: ELISA, hFc-hFasL coated, antibody titrated, anti-human kappa-HRP
[5] = target: T1, hFc-hFasL (fusion protein of human Fc …); assay: ELISA, hFc-hFasL coated, antibody titrated, anti-human kappa-HRP (protocol of Example 3.2)
[6] = target: T1, hFc-hFasL (fusion protein of human Fc …); assay: cell-based or functional assay; remark: listed apart in the source
[7] = target: T1, hFc-hFasL (fusion protein of human Fc …); assay: cell-based or functional assay; remark: listed apart in the source
[8] = target: T1, hFc-hFasL (fusion protein of human Fc …); assay: cell-based or functional assay; remark: listed apart in the source

Row | Binder | EC50(nM), FasL antigen-induced NF-κB signaling pathway activation (SEAP, HepG2-Dual) [1] [nM] | IC50(nM), FasL antigen-induced apoptosis of Jurkat cells (CellTiter-Glo ATP) [2] [nM] | IC50(nM), FasL antigen-induced apoptosis of HepG2 cells (CellTiter-Glo ATP) [3] [nM] | EC50 [4] [nM] | EC50 [5] [nM] | HepG2 IC50(nM), FasL antigen-induced cell apoptosis [6] [nM] | Jurkat IC50(nM), FasL antigen-induced cell apoptosis [6] [nM] | further results
1 | FL-M05 (antibody, V domains shown, Chimeric full-length antibody, tested as human IgG4 / human kappa) VH: EVQLQQSGAELVRPGVSVKISCKGSGYTFTDYTMHWVKQSHAKSLEWIGVISTYQGDARYNQKFKGKATMTVDKSSSTAYMELARLTSEDSAIYYCARFPDWDYAMDYWGQGTSVTVSS VL: DIVLTQSPASLAVSLGQRATISCKASQSVDYDGDSYMNWYQQKPGQPPKLLIYAASNLESGIPARFSGSGSGTDFTLNIHPVEEEDAATYYCQHSRELPYTFGGGTKLEIK | 1.13 | 0.109 | 0.03 | 0.186 | – | – | – | –
2 | FL-M89 (antibody, V domains shown, Chimeric full-length antibody, tested as human IgG4 / human kappa) VH: EVQLQQSGAELVRPGVSVKISCKGSGYTFTDYTIHWVKQSHAKSLEWIGVISTYQGDASYNQKFKGKATMTVDKSSSTAYMELARLTSEDSAIYYCARFPDWDYAMDYWGQGTSVTVSS VL: DIVMTQSPASLAVSLGQRATISCKASQSVDYDGDSYMNWYQQKPGQPPKLLIYAASNLESGIPARFSGSGSGTDFTLNIHPVEEEDAATYYCQQSRELPYTFGGGTKLEIK | 1.33 | 0.023 | 0.021 | 0.441 | – | – | – | –
3 | FL-M08 (antibody, V domains shown, Chimeric full-length antibody, tested as human IgG4 / human kappa) VH: QIQLLQSGAELVRPGVSVKISCKGSGYTFTDYAMHWVKQSHAKSLEWIGVISTYQGDANYNQKFKGKATMTVDKSSSTAYMELARLTSEDSAIYYCARFPDWDYAMDYWGQGTSVTVSS VL: EIVLTQSPASLAVSLGQRATISCKASQSVDYDGDSYMNWYQQKPGQPPKLLIYAASNLESGIPARFSGSGSGTDFTLNIHPVEEEDAATYYCQHSRELPYTFGGGTKLEIK | 0.704 | 0.035 | 0.016 | 0.157 | – | – | – | –
4 | FL-M78 (antibody, V domains shown, Chimeric full-length antibody, tested as human IgG4 / human kappa) VH: DVQLQESGGGLVQPGGSRKLSCAASGFTFSSYDMSWVRQTPEKRLEWVAFISSGGGSTYYPDTVKGRFTISRDNAKNTLYLQMSSLKSEDSAMYYCGRHYDNYLYAMDYWGQGTSVTVSS VL: DIVMTQSPASQSASLGESVTITCLASQTIGTWLAWYQQKPGKSPQLLIYAATSLADGVPSRFSGSGSGTKFSFKISSLQAEDFVSYYCQQLYSTPFTFGGGTKLEIK | 3.01 | 0.023 | 0.016 | 0.811 | – | – | – | –
5 | humFL-M88-1 (antibody, human IgG4, V domains shown, Humanized FL-M88) VH: QVQLVQSGAEVKKPGASVKVSCKGSGYTFTDYTIHWVRQAPGQGLEWIGVISTYQGDASYNQKFKGRATMTVDKSTSTAYMELSSLRSEDTAVYYCARFPDWDYAMDYWGQGTLVTVSS VL: EIVMTQSPATLSVSPGERATLSCKASQSVDYDGDSYMNWYQQKPGQPPRLLIYAASNLESGIPARFSGSGSGTEFTLTISSLQSEDFAVYYCQHSRELPYTFGQGTKLEIK | – | – | – | – | 0.265 | 0.0125 | 0.0193 | EC50(nM), FasL antigen-induced NF-κB signaling pathway activation [7]: 0.454 nM
6 | humFL-M88-6 (antibody, human IgG4, V domains shown, Humanized FL-M88) VH: QVQLVQSGAEVKKPGASVKVSCKASGYTFTDYTIHWVRQAPGQGLEWMGVISTYQGDASYNQKFKGRVTMTVDTSTSTVYMELSSLRSEDTAVYYCARFPDWDYAMDYWGQGTLVTVSS VL: EIVMTQSPATLSVSPGERATLSCKASQSVDYDGDSYMNWYQQKPGQPPRLLIYAASNLESGIPARFSGSGSGTEFTLTISSLQSEDFAVYYCQHSRELPYTFGQGTKLEIK | – | – | – | – | 0.235 | 0.0204 | – | –
7 | humFL-M88-5 (antibody, human IgG4, V domains shown, Humanized FL-M88) VH: QVQLVQSGAEVKKPGASVKVSCKGSGYTFTDYTIHWVRQAPGQGLEWMGVISTYQGDASYNQKFKGRVTMTVDKSTSTVYMELSSLRSEDTAVYYCARFPDWDYAMDYWGQGTLVTVSS VL: EIVMTQSPATLSVSPGERATLSCKASQSVDYDGDSYMNWYQQKPGQPPRLLIYAASNLESGIPARFSGSGSGTEFTLTISSLQSEDFAVYYCQHSRELPYTFGQGTKLEIK | – | – | – | – | 0.23 | 0.0222 | 0.0186 | –
8 | humFL-M88-3 (antibody, human IgG4, V domains shown, Humanized FL-M88) VH: QVQLVQSGAEVKKPGASVKVSCKGSGYTFTDYTIHWVRQAPGQGLEWMGVISTYQGDASYNQKFKGRATMTVDKSTSTAYMELSSLRSEDTAVYYCARFPDWDYAMDYWGQGTLVTVSS VL: EIVMTQSPATLSVSPGERATLSCKASQSVDYDGDSYMNWYQQKPGQPPRLLIYAASNLESGIPARFSGSGSGTEFTLTISSLQSEDFAVYYCQHSRELPYTFGQGTKLEIK | – | – | – | – | 0.273 | 0.0276 | 0.0192 | EC50(nM), FasL antigen-induced NF-κB signaling pathway activation [7]: 0.444 nM
9 | FL-M54 (antibody, V domains shown, Chimeric full-length antibody, tested as human IgG4 / human kappa) VH: EVQLQQSGVELVKPGASVKLSCKASGYTFTRFDISWVRQRPEQGLEWIGWIFPGDGSSQYNENFKGKATLTTDKSSGTAYMQLNRLTSEDSAVYFCARSLISTAMFDHWGQGTTLTVSS VL: DIVMTQSPASLAVSLGQRATISCRASKSVSTSDFSYIHWYQQKPGQPPKLLIFLASHLESGVPARFSGSGSGTDFTLNIHPVEEEDAATYYCQHSRELPRTFGGGTKLEIK | 1.97 | 0.018 | 0.018 | 0.725 | – | – | – | HepG2 IC50(nM), FasL antigen-induced cell apoptosis [8]: 0.023 nM; Jurkat IC50(nM), FasL antigen-induced cell apoptosis [8]: 0.023 nM
10 | FL-M56 (antibody, V domains shown, Chimeric full-length antibody, tested as human IgG4 / human kappa) VH: EVQLQQSGPELVKPGASVKLSCKASGYTFTRFDISWVRQRPEQGLEWIGWIFPGDGSTQYNENFKGKATLTTDKSSGTAYMQLNRLTSEDSAVYFCARSLISTAMFDHWGQGTTLTVSS VL: DIVLTQSPASLAVSLGQRATISCRASKSVSTSDFSYIHWYQQKPGLPPKLLIFLASHLESGVPARFSGSGSGTDFTLNIHPVEEEDAATYYCQHSRELPRTFGGGTKLEIK | 2.73 | 0.02 | 0.02 | 0.661 | – | – | – | –

Second part, led by results:

Row | EC50(nM), FasL antigen-induced NF-κB signaling pathway activation (SEAP, HepG2-Dual) [1] [nM] | IC50(nM), FasL antigen-induced apoptosis of Jurkat cells (CellTiter-Glo ATP) [2] [nM] | IC50(nM), FasL antigen-induced apoptosis of HepG2 cells (CellTiter-Glo ATP) [3] [nM] | EC50 [4] [nM] | EC50 [5] [nM] | HepG2 IC50(nM), FasL antigen-induced cell apoptosis [6] [nM] | Jurkat IC50(nM), FasL antigen-induced cell apoptosis [6] [nM] | Binder | further results
11 | – | – | – | – | 0.284 | 0.0225 | 0.022 | humFL-M88-9 (antibody, human IgG4, V domains shown, Humanized FL-M88) VH: QVQLVQSGAEVKKPGASVKVSCKGSGYTFTDYTIHWVRQAPGQGLEWMGVISTYQGDASYNQKFKGRATMTVDKSTSTAYMELSSLRSEDTAVYYCARFPDWDYAMDYWGQGTLVTVSS VL: EIVMTQSPATLSVSPGERATLSCKASQSVDYDGDSYMNWYQQKPGQAPRLLIYAASNLESGIPARFSGSGSGTEFTLTISSLQSEDFAVYYCQHSRELPYTFGQGTKLEIK | –
12 | – | – | – | – | 0.34 | 0.0274 | – | humFL-M88-7 (antibody, human IgG4, V domains shown, Humanized FL-M88) VH: QVQLVQSGAEVKKPGASVKVSCKGSGYTFTDYTIHWVRQAPGQGLEWIGVISTYQGDASYNQKFKGRATMTVDKSTSTAYMELSSLRSEDTAVYYCARFPDWDYAMDYWGQGTLVTVSS VL: EIVMTQSPATLSVSPGERATLSCKASQSVDYDGDSYMNWYQQKPGQAPRLLIYAASNLESGIPARFSGSGSGTEFTLTISSLQSEDFAVYYCQHSRELPYTFGQGTKLEIK | –
13 | – | – | – | – | 0.272 | – | 0.0325 | humFL-M88-18 (antibody, human IgG4, V domains shown, Humanized FL-M88) VH: QVQLVQSGAEVKKPGASVKVSCKASGYTFTDYTIHWVRQAPGQGLEWMGVISTYQGDASYNQKFKGRVTMTVDTSTSTVYMELSSLRSEDTAVYYCARFPDWDYAMDYWGQGTLVTVSS VL: EIVMTQSPATLSVSPGERATLSCKASQSVDYDGDSYMNWYQQKPGQPPRLLIYAASNLESGIPARFSGSGSGTEFTLTISSLQSEDFAVYYCQQSRELPYTFGQGTKLEIK | –
14 | – | – | – | – | 0.302 | 0.0126 | 0.0243 | humFL-M88-13 (antibody, human IgG4, V domains shown, Humanized FL-M88) VH: QVQLVQSGAEVKKPGASVKVSCKGSGYTFTDYTIHWVRQAPGQGLEWIGVISTYQGDASYNQKFKGRATMTVDKSTSTAYMELSSLRSEDTAVYYCARFPDWDYAMDYWGQGTLVTVSS VL: EIVMTQSPATLSVSPGERATLSCKASQSVDYDGDSYMNWYQQKPGQPPRLLIYAASNLESGIPARFSGSGSGTEFTLTISSLQSEDFAVYYCQQSRELPYTFGQGTKLEIK | EC50(nM), FasL antigen-induced NF-κB signaling pathway activation [7]: 0.698 nM
15 | – | – | – | – | 0.276 | – | 0.0234 | humFL-M88-12 (antibody, human IgG4, V domains shown, Humanized FL-M88) VH: QVQLVQSGAEVKKPGASVKVSCKASGYTFTDYTIHWVRQAPGQGLEWMGVISTYQGDASYNQKFKGRVTMTVDTSTSTVYMELSSLRSEDTAVYYCARFPDWDYAMDYWGQGTLVTVSS VL: EIVMTQSPATLSVSPGERATLSCKASQSVDYDGDSYMNWYQQKPGQAPRLLIYAASNLESGIPARFSGSGSGTEFTLTISSLQSEDFAVYYCQHSRELPYTFGQGTKLEIK | –
